Laboratory results taken from the supplement of paper PMC10065799, “High-throughput profiling of sequence recognition by tyrosine kinases and SH2 domains using bacterial peptide display” (eLife, 2023).

molecular target: Hck (UniProt P08631); assay: phosphorylation enrichment, bacterial display (enrichment ratio); higher = better substrate or ligand; peptides without Tyr show the background
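Note: 11-residue human phosphosite peptides and single-mutation variants displayed on the E. coli surface, counted by deep sequencing, each peptide's frequency after selection divided by its frequency in the unselected input library; frequency after pTyr selection over input frequency; kinase dosed for 20-30% of maximal phosphorylation in three min.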

Hck, sequence (P08631 whole entry, looked up): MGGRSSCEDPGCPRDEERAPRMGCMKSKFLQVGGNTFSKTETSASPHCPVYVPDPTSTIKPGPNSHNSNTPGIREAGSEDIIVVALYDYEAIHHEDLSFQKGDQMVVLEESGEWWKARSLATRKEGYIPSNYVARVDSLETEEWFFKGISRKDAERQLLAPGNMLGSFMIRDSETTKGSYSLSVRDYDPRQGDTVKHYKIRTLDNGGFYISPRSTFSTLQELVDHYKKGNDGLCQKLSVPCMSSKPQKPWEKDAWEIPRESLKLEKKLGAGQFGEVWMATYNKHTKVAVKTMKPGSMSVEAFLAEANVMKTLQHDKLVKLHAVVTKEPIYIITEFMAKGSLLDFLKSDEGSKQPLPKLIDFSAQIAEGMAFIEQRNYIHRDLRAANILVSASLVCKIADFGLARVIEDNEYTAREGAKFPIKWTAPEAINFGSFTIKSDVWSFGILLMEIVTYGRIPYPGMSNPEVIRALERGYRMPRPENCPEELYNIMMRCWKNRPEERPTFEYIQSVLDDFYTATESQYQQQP

Row | Sequence | phosphorylation enrichment
1 | VHKKGYNKLNQ [ZNF676_Y98_E96K] | 0.43
2 | PVGDAYKKKGL [NMNAT1_Y55] | 0.559
3 | CLGNQYVNVMN [SLC3A1_Y461_R456C] | 0.448
4 | FPCSVYVPDEW [INSR_Y1011] | 0.675
5 | IFCIQYNIRAF [MYH4_Y820] | 0.608
6 | CASQLYPRHKH [DCTN4_Y263] | 0.483
7 | KNKNRYKNILP [PTPN11_Y279] | 0.851
8 | ELTSKYRGGGG [HBA1_Y141_V136E] | 0.422
9 | LNTFHYAGVSA [POLR2A_Y1109] | 0.45
10 | PARLEYCENEK [IRS1_Y46_Y47C] | 1.04
11 | YDEYRYRSFIK [CFTR_Y517_V520F] | 1.51
12 | CTTIHYNYMCD [TP53_Y234_N239D] | 0.469
13 | HRGHLYLAIEY [TEK_Y899_Y897H] | 0.572
14 | NKEPRYQEDPP [TJP2_Y479] | 0.546
15 | PSQRRYLYYYS [PTEN_Y174_V175L] | 0.737
16 | DGQSVYKLTDF [TBK1_Y153] | 0.751
17 | TIMTDYNPNYC [ALK_Y1092] | 0.66

Row | Sequence | phosphorylation enrichment
18 | MALDIYRASFF [ALK_Y1278_R1275L_YF] | 1.22
19 | LSDVIYVILRK [PMP22_Y153_G150D] | 0.391
20 | ALCHFYKLNII [ETV6_Y402_R399C_YF] | 0.544
21 | REDIFYTSKLW [AKR1C2_Y81] | 0.77
22 | LGMSQYFRLFN [CPT2_Y217_D213G] | 0.64
23 | MPQNEYIELHC [NSA2_Y6_R11C] | 0.626
24 | EKEKKYMLPLD [DNM2_Y563] | 0.591
25 | FTFDPYSEEEP [IL2RB_Y387_D391E_YF] | 0.584
26 | PIQLFYTRRNT [GHR_Y86] | 0.957
27 | QMVDMYASSFM [AVPR2_Y124_G122D_YF] | 1.58
28 | DAVAVYHGKIS [SH2D1A_Y7] | 0.533
29 | RFLRGYQQDAF [HLA-A_Y137_R138Q_YF] | 0.693
30 | FLNSIYKSRDE [ROS1_Y2227] | 0.519
31 | ALPVFYAATIA [SLC20A2_Y187] | 0.956
32 | FPDFVYKRIKA [DPYSL2_Y479] | 0.443
33 | ETKKQYNSFTF [TMED3_Y85_D86N_YF] | 0.417

tested on: c-Abl (mouse); assay: as above

Row | Sequence | phosphorylation enrichment
34 | VHKKGYNKLNQ [ZNF676_Y98_E96K] | 0.645
35 | PVGDAYKKKGL [NMNAT1_Y55] | 0.574
36 | CLGNQYVNVMN [SLC3A1_Y461_R456C] | 0.689
37 | FPCSVYVPDEW [INSR_Y1011] | 1.08
38 | IFCIQYNIRAF [MYH4_Y820] | 1.35
39 | CASQLYPRHKH [DCTN4_Y263] | 0.807
40 | KNKNRYKNILP [PTPN11_Y279] | 0.877
41 | ELTSKYRGGGG [HBA1_Y141_V136E] | 0.471
42 | LNTFHYAGVSA [POLR2A_Y1109] | 0.552
43 | PARLEYCENEK [IRS1_Y46_Y47C] | 1.08
44 | YDEYRYRSFIK [CFTR_Y517_V520F] | 0.957
45 | CTTIHYNYMCD [TP53_Y234_N239D] | 0.545
46 | HRGHLYLAIEY [TEK_Y899_Y897H] | 0.599
47 | NKEPRYQEDPP [TJP2_Y479] | 0.48
48 | PSQRRYLYYYS [PTEN_Y174_V175L] | 0.659
49 | DGQSVYKLTDF [TBK1_Y153] | 0.444
50 | TIMTDYNPNYC [ALK_Y1092] | 0.923

Row | Sequence | phosphorylation enrichment
51 | MALDIYRASFF [ALK_Y1278_R1275L_YF] | 4.88
52 | LSDVIYVILRK [PMP22_Y153_G150D] | 0.617
53 | ALCHFYKLNII [ETV6_Y402_R399C_YF] | 0.833
54 | REDIFYTSKLW [AKR1C2_Y81] | 0.607
55 | LGMSQYFRLFN [CPT2_Y217_D213G] | 0.581
56 | MPQNEYIELHC [NSA2_Y6_R11C] | 0.658
57 | EKEKKYMLPLD [DNM2_Y563] | 0.589
58 | FTFDPYSEEEP [IL2RB_Y387_D391E_YF] | 0.733
59 | PIQLFYTRRNT [GHR_Y86] | 0.738
60 | QMVDMYASSFM [AVPR2_Y124_G122D_YF] | 1.2
61 | DAVAVYHGKIS [SH2D1A_Y7] | 0.51
62 | RFLRGYQQDAF [HLA-A_Y137_R138Q_YF] | 0.81
63 | FLNSIYKSRDE [ROS1_Y2227] | 0.499
64 | ALPVFYAATIA [SLC20A2_Y187] | 0.831
65 | FPDFVYKRIKA [DPYSL2_Y479] | 0.362
66 | ETKKQYNSFTF [TMED3_Y85_D86N_YF] | 0.561

molecular target: Fes (UniProt P07332); assay: as above
Sequence (P07332 whole entry, looked up): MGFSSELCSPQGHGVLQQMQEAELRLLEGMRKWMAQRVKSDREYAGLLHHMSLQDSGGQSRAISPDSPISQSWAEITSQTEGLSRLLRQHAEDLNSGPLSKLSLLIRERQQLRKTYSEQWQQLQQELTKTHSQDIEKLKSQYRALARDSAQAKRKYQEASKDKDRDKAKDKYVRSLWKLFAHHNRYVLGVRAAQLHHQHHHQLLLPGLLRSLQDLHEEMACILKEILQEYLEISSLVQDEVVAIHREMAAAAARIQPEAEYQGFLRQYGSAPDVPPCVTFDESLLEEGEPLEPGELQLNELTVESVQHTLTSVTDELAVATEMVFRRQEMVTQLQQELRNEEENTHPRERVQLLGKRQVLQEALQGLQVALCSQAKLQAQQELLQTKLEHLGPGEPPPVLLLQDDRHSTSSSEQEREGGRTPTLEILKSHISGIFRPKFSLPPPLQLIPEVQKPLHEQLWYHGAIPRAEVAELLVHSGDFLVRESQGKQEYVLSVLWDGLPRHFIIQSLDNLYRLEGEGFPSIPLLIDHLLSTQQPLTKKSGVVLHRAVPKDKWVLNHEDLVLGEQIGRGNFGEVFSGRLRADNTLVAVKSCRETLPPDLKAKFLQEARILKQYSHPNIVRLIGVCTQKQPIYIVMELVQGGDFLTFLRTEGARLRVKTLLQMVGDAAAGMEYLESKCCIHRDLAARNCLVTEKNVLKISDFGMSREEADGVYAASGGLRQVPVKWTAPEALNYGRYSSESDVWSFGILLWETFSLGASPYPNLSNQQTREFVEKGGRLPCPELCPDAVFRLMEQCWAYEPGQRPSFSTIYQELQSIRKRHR

Row | Sequence | phosphorylation enrichment
67 | VHKKGYNKLNQ [ZNF676_Y98_E96K] | 0.66
68 | PVGDAYKKKGL [NMNAT1_Y55] | 0.976
69 | CLGNQYVNVMN [SLC3A1_Y461_R456C] | 1.05
70 | FPCSVYVPDEW [INSR_Y1011] | 1.3
71 | IFCIQYNIRAF [MYH4_Y820] | 1.76
72 | CASQLYPRHKH [DCTN4_Y263] | 0.928
73 | KNKNRYKNILP [PTPN11_Y279] | 1.03
74 | ELTSKYRGGGG [HBA1_Y141_V136E] | 0.573
75 | LNTFHYAGVSA [POLR2A_Y1109] | 0.722
76 | PARLEYCENEK [IRS1_Y46_Y47C] | 1.74
77 | YDEYRYRSFIK [CFTR_Y517_V520F] | 0.946
78 | CTTIHYNYMCD [TP53_Y234_N239D] | 0.898
79 | HRGHLYLAIEY [TEK_Y899_Y897H] | 1.56
80 | NKEPRYQEDPP [TJP2_Y479] | 0.999
81 | PSQRRYLYYYS [PTEN_Y174_V175L] | 1.4
82 | DGQSVYKLTDF [TBK1_Y153] | 0.775
83 | TIMTDYNPNYC [ALK_Y1092] | 1.26

Row | Sequence | phosphorylation enrichment
84 | MALDIYRASFF [ALK_Y1278_R1275L_YF] | 0.953
85 | LSDVIYVILRK [PMP22_Y153_G150D] | 1.28
86 | ALCHFYKLNII [ETV6_Y402_R399C_YF] | 1.42
87 | REDIFYTSKLW [AKR1C2_Y81] | 1.12
88 | LGMSQYFRLFN [CPT2_Y217_D213G] | 1.26
89 | MPQNEYIELHC [NSA2_Y6_R11C] | 1.2
90 | EKEKKYMLPLD [DNM2_Y563] | 0.796
91 | FTFDPYSEEEP [IL2RB_Y387_D391E_YF] | 1.49
92 | PIQLFYTRRNT [GHR_Y86] | 1.13
93 | QMVDMYASSFM [AVPR2_Y124_G122D_YF] | 1.31
94 | DAVAVYHGKIS [SH2D1A_Y7] | 0.744
95 | RFLRGYQQDAF [HLA-A_Y137_R138Q_YF] | 0.684
96 | FLNSIYKSRDE [ROS1_Y2227] | 0.642
97 | ALPVFYAATIA [SLC20A2_Y187] | 1.03
98 | FPDFVYKRIKA [DPYSL2_Y479] | 0.773
99 | ETKKQYNSFTF [TMED3_Y85_D86N_YF] | 0.711

molecular target: Fyn (UniProt P06241); assay: as above
Sequence (P06241 whole entry, looked up): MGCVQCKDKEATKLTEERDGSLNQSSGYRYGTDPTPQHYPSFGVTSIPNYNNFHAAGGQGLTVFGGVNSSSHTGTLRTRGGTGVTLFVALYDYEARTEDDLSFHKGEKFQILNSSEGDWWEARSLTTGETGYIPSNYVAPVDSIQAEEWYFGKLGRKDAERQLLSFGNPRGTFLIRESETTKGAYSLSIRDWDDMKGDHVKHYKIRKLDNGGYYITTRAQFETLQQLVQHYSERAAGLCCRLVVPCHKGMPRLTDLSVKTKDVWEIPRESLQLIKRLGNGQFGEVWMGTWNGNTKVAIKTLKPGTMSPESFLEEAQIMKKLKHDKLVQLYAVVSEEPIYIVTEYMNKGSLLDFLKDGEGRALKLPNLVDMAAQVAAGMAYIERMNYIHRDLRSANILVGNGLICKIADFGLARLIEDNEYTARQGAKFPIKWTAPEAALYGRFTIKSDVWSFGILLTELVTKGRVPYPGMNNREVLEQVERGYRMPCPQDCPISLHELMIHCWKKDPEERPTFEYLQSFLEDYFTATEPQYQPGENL

Row | Sequence | phosphorylation enrichment
100 | VHKKGYNKLNQ [ZNF676_Y98_E96K] | 0.403
101 | PVGDAYKKKGL [NMNAT1_Y55] | 0.522
102 | CLGNQYVNVMN [SLC3A1_Y461_R456C] | 0.403
103 | FPCSVYVPDEW [INSR_Y1011] | 0.714
104 | IFCIQYNIRAF [MYH4_Y820] | 0.445
105 | CASQLYPRHKH [DCTN4_Y263] | 0.38
106 | KNKNRYKNILP [PTPN11_Y279] | 0.644
107 | ELTSKYRGGGG [HBA1_Y141_V136E] | 0.353
108 | LNTFHYAGVSA [POLR2A_Y1109] | 0.419
109 | PARLEYCENEK [IRS1_Y46_Y47C] | 1.12
110 | YDEYRYRSFIK [CFTR_Y517_V520F] | 2.33
111 | CTTIHYNYMCD [TP53_Y234_N239D] | 0.405
112 | HRGHLYLAIEY [TEK_Y899_Y897H] | 0.447
113 | NKEPRYQEDPP [TJP2_Y479] | 0.693
114 | PSQRRYLYYYS [PTEN_Y174_V175L] | 1.04
115 | DGQSVYKLTDF [TBK1_Y153] | 2.52
116 | TIMTDYNPNYC [ALK_Y1092] | 0.439

Row | Sequence | phosphorylation enrichment
117 | MALDIYRASFF [ALK_Y1278_R1275L_YF] | 1.06
118 | LSDVIYVILRK [PMP22_Y153_G150D] | 0.414
119 | ALCHFYKLNII [ETV6_Y402_R399C_YF] | 0.537
120 | REDIFYTSKLW [AKR1C2_Y81] | 0.692
121 | LGMSQYFRLFN [CPT2_Y217_D213G] | 0.364
122 | MPQNEYIELHC [NSA2_Y6_R11C] | 0.615
123 | EKEKKYMLPLD [DNM2_Y563] | 0.625
124 | FTFDPYSEEEP [IL2RB_Y387_D391E_YF] | 0.59
125 | PIQLFYTRRNT [GHR_Y86] | 0.938
126 | QMVDMYASSFM [AVPR2_Y124_G122D_YF] | 1.35
127 | DAVAVYHGKIS [SH2D1A_Y7] | 0.442
128 | RFLRGYQQDAF [HLA-A_Y137_R138Q_YF] | 0.685
129 | FLNSIYKSRDE [ROS1_Y2227] | 0.444
130 | ALPVFYAATIA [SLC20A2_Y187] | 0.544
131 | FPDFVYKRIKA [DPYSL2_Y479] | 0.494
132 | ETKKQYNSFTF [TMED3_Y85_D86N_YF] | 0.432
